A protein production outcome set (Wang et al. 2014)

Test: label from the status in PepcDB records

MAPAKSPRAWQRMLSGRRLDLLDPSPLDVEIADIAHGLARVARWNGQTRGDHAFTVAQHCLIVETIFCRMCPGATPDEMQMALLHDAPEYVIGDMISPFKSVVGGGYKTVEKRLEAAVHLRFGLPPHASRELKDRIKKADTVAAFFEATELAGFSTAEAQKFFGLPRGITRDMFDIIPLPSTEAQRLFIARFEAIETLRVTRTGGAV
protein production: not failed

MTDDPTLWAQRLEEAVVGLGANGDRSHDLAHAKRVLRTALALADGVEDQGEGPVDRLVLTAAAYLHDIVAIEKNDPRRSLASRLSAAKAREILGGLDFPAGRQDGVAHAIEAHSFSAGIAPRSLEARILQDADRMESLGAIGVARTFYVAGRLGSALFHDDDPLAFARPLDERAYALDHFFTKLLTLPATMTTAPGRAMAGERAELLRAFAEALAQEVSGAAAPGPRPARPSDGEAPSPLPVWPGSGTRTR
protein production: failed

MITDEHIELFLAQAHRYGDAKLMLCSSGNLSWRIGEEALISGTGSWVPTLAKEKVSICNIASGTPTNGVKPSMESTFHLGVLRERPDVNVVLHFQSEYATAISCMKNKPTNFNVTAEIPCHVGSEIPVIPYYRPGSPELAKAVVEAMLKHNSVLLTNHGQVVCGKDFDQVYERATFFEMACRIIVQSGGDYSVLTPEEIEDLEIYVLGKKTK
protein production: not failed

MATIDLVRHAEPDITIHDDFLRPLTSAGQRQTQQLVDSLHQYPYTAFFSSPLKRAVDTITPIADDHGLPVQKNELLVERKMPAWLPNFSDYVNQQWQDLTFFEKPGESIHQVQERYLSFLYGLPSSAFVAVGSHGTAISSLVEAAIPGIGYHFFSKLGYAAVTRIEMHAGNMVHLAVWEPKSKTFKVLK
protein production: failed

MAKTLFWLCLLLPFYAWVGYPLLLALLSLFVRPRPVQEGAPLSVSVIIAAHNEGPHIEHKLRTLLQQDYPATDLQIILASDGSSDDTVATALGVRDSRIVVLDLPRVGKAGALNAAVELARNDILVFTDADNQWSHDTLGKLLAPLSDPQVGACGGHMIIPDPGHNLSLGDSLYRHYEAWLRQAENRTGCMVSADGALLALRRELFQRIPAEVNDDFFISTCAPVAGKRIVYVEEAQVLDQGVDEAGKQYRRRLRVTVGGLQSLAQRRELMNPLRHGAYAIALISHKLIRRLAPVLLLPLLVSSLLLWNAGAFYSLALLAQVLGYGAGIMGLLDRRGRLPKVFRLAGFVLVTMAGMSMGLWQFLRGQRYALWNPQQNR
protein production: failed

MTDESSVRTPKALPDGVSQATVGVRGGMLRSGFEETAEAMYLTSGYVYGSAAVAEKSFAGELDHYVYSRYGNPTVSVFEERLRLIEGAPAAFATASGMAAVFTSLGALLGAGDRLVAARSLFGSCFVVCSEILPRWGVQTVFVDGDDLSQWERALSVPTQAVFFETPSNPMQSLVDIAAVTELAHAAGAKVVLDNVFATPLLQQGFPLGVDVVVYSGTKHIDGQGRVLGGAILGDREYIDGPVQKLMRHTGPAMSAFNAWVLLKGLETLAIRVQHSNASAQRIAEFLNGHPSVRWVRYPYLPSHPQYDLAKRQMSGGGTVVTFALDCPEDVAKQRAFEVLDKMRLIDISNNLGDAKSLVTHPATTTHRAMGPEGRAAIGLGDGVVRISVGLEDTDDLIADIDRALS
protein production: not failed

MANIAVQRIKREFKEVLKSEETTKNQIKVDLVDENFTELRGEIAGPPDTPYEGGRYQLEIKIPETYPFNPPKVRFITKIWHPNISSVTGAICLDILKDQWAAAMTLRTVLLSLQALLAAAEPDDPQDAVVANQYKQNPEMFKQTARLWAHVYAGAPVSSPEYTKKIENLCAMGFDRNAVIVALSSKSWDVETATELLLSN
protein production: not failed

MSNVSSETVNLNNTSIVHMNMSNVTKLTASNYIMWSRQVHALLHGYGLTQYLDATKAAPAREITVNDVASVNPEYEAWSRQDQLIFSALIGTLSLTVQPTVSRAATSADVWATLAGTYAKPSRGHIKQLQHQIKQWKKDTRTIDEYVQGFINRFDQLALIGKIIDHEDQVDYILGGLPEDYKPIVDQMEGRDTPPNGCLTNSCDEDGCFIQMALNSV
protein production: failed

MEAIFWLALALVAFTYAGYPLVLAVWDGAREALAAVRFVSGGDDRRGRATEGWPTVTLLFSAFDEEAWIRRKIENCLALDYPPDRLEILVGCDGCTDRTAEIAREVGGSRVKVHALSPRAGKASVLSRLVPQARGDLVVLTDANVMLERGALRALARRFREPGVGAVVGRLRLFNPTRREFEESLYWKYETAIKYYEGKHGCVLGANGGIYAIRRILFSPLPPDTIVDDFVIPVRIAARGWEVPFEPEAVAFEETTEDAGHEFGRRARIGAGNWQALARVPELLDPRTGFLCFAFVSHKLLRWSAPFLLAAAAVANGLLAAAPGAWGYRALLLAQAAFYGLALAGRHGAVGLRGPVRRLASLAHYFVAMNAALAVGLWRFLRRSQRAAWQRTERAGPSVPAA
protein production: failed

MKWLRSEMKTFAIHLPQFHTFPENDRWWGKGFTEWTNVKKAKPLYEGHSQPLIPINSHYYDLSNPEEMTRQHRLAAQYGIDGFVYYHYWFNGKKLMEKPVEDLLTNKEAKQQYCLCWANEPWTRAWDGKNKEILMPQTFGGQEDWLNHIRYLISFFKDERYLRIQGRPVFFVYSPKNIPNFDNMIEFWDSYLERCGEEKIYLIEYISSFNPKAFSDYSKAVFEFEPLYSAHYEISFLKQADRFIDKKMKRLDCLDYDYLWNRILNKQRKYGTRQIVRSAFTNFDNSPRKGTRAFITQGSSYTKFADYLNQLIHSNRQDYMDFTVINAWNEWGEGAILEPTESDQYGWLQAVKDAVQ
protein production: failed

MSKVNQQDIDKLIELVGGRGNIATVSHCITRLRFVLNDPAIARPKEIEQLRMVKGCFTNAGQFQVVIGTEVGDYYKALLATTGQTSADKEQVKQAARQNM
protein production: failed

PLKEQKVINTANITTNSKLDLAEYENGLMNIAKEQFDTENHVLQLNQYIPEKLVDELVAKVKAPVLTNIIEQDYFGKQNSNELSLSGVMIGLAMSSSVSNEEAMSKGTEVANQLIEAIHKNDKYNKSPITFAIFKQESTSSLKNGTYIASATVQKNDTNIGNWNAIEEKAYSYPSDEFTQAHGEDNTKIDDFAKEMKGFSPGDFIPVNAKVSYKKNQMDTLNMNIVIKYNGKTELMALTQLAAQIMLEQLPKDAKVQLQIKSENKIEAIVIKEKNSDKPFVSFL
protein production: not failed

MTLWSVASVLTLAFIFWLNAVMTASPYIVYLSGLKKQSERKNRLVALLLLLASLLYFFLKVGSFAAEGFAGMIDTTYMQFIWTGPVGLFIQLQIAVAIAWIVYSVVKLKRIKWVLYVVAIGLMGWSFLSIGHGSDAVWWGKLALLTHLLVAWVWFGSLNSLRKLATSVPLAKAKAIMERFGVHMSAAVPILLIAGLVMYRSATGRWMPELPLTSYDTVLLAKLVFVALILLVAALHKLKFVPQLNDNAAAKRLKNSITAEMVLAVTIFILASALSSAFSPG
protein production: failed

MSEPVFPTPEAAEDAFYAAFEARSLDDMMAVWARDDHVACIHPLAAPLNGRAAVAAGWRSMFGAAGRFRLQVKAVHEIRQADHVIRIVDEFLTIGDETAPRPAILATNVYRREADGWRMVLHHASPLQVGAKAGADTPPVVFH
protein production: not failed

GSHMPVPSFGEAMAYFAMVKRYLTSFPIDDRVQSHILHLEHDLVHVTRKNHARQAGVRGLGHQS
protein production: not failed

MEKKEMEKLCQRCKQSYTDLSNETSSCRFHPSFFVCRRHDDQKRYYELKPDDPPYAAKFYDCCGAEDPNAPGVKDLACDLSAGYCLEPLLALHTATE
protein production: failed

MTPEIAIGLVTALGLGALVGLERQWRQRSSGMATHAMVALGAASFSILPLLLDNEVSVTRMAAQVVSGIGFLGAGVIMRDGLSVRGLSTAASIWSTGAIGVLAGSGFILAACMTTALIVIANLFLPALGRVVDRHTSGEAEQERFYQISVSCEARNEALVRMQLLQRMGDNRLNLQSLESHALKGSGNVEVNAVVFTLHKEDSLVEQMVGELCLAPQVTAASWVMNPAAE
protein production: failed

MAIAFHTFLLQLLLFFFASFAEANDSRKTYLVQMKVGGHRYGSSSGHQELLGEVLDDDSYKESFTGFSASLTPRERQKLMSKTTTVSSRRREVLEVSRSRNLKLQTTRSWDFMNLTLKAERNPENESDLVVAVIDSGIWPYSELFGSDSPPPPGWENKCENITCNNKIVGARSYYPKKEKYKWVEEKSVIDVTGHGTHVASIVAGRKVEKAGYFGLAEGTMRGGVPNAKIAVYKTCWRVIRKNGREDSVCREDNILKAIDDAIADKVDIISYSQGFQFTPLQKDKVSWAFLRALKNGILTSAAAGNYANNGKFYYTVANGAPWVMTVAASLKDRIFETKLELEGEDKPIIVYDTINTFETQDSFYPLLNEKAPPESTRKRELIAERNGYSILSNYDEKDKGKDVFFEFAQINLLDEAIKEREKGAIVLGGKSYDFNESIKLQFPIASIFLDEQKKGKLWDYYKKDQSKERLAKIHKTEEIPREEGWVPTVAHLSSRGPNCDSFLANILKPDIAAPGLDIIAGWPENVKLSSDRPANDYRHLRFNIMSGTSMACPHATGLALYLKSFKRWSPSAIKSALMTTSSEMTDDDNEFAYGSGHLNATKVRDPGLVYETHYQDYIDYLCKLGYNTEKLRSHVGSDKIDCSKTEIDHDADLNYPTMTARVPLPLDTPFKKVFHRTVTNVNDGEFTYLREINYRGDKDFDEIIVDPPQLKFSELGETKTFTVTVTGISKRNWNKNRAFMTRNTWLTWTEKDGSRQVRSPIVIYSIKGPKACM
protein production: failed

MKFRGNFVCQPRAGPAESRPTRPFTPRPSATGSLFMSNQHFVSPDLIRQGFSRAMSDMYREEVPLYGALMELVAEVNAQVLERQPALARHLQSSGELQRLDLERHGAIRVGSAAELATLARLFAVMGMQPVGYYDLTPAGVPVHSTAFRAVHEAALQVSPFRVFTSLLRLELIDNPELRSFAEQVLARRQIFTPQVLELIQQAEAAGGLDAEDAERFIRQALETFRWHHHATVTAAQYASLSAQHRLIADVVAFKGPHINHLTPRTLDIDEVQRLMPARGITPKAVIEGPPRRECPILLRQTSFKALEESVAFTDQAQSQGSHSARFGEIEQRGAALTPKGRELYDRLLNAARDALGDFPNEANAQRYNQLMQEHFREFPDSHPAMREQGLAYFRYFVSETGLAARNQPQRPTTLAALLAAGHLSAEPLVYEDFLPVSAAGIFQSNLGDDSQSHYAGQSNRQAFEAALGRPTLDELQLYAQTQQRSLEHCAATLGLPAL
protein production: failed

MYVLIGGAGLIGQQLARQVLDQGHTVAVIDQDPQVCKMVRDRLGAMAFEGSAVNTDILLEAGICRADAVAAVLRQDALNLALVTLACHYGVSRIISRISQQDFIEPMRLAGAHHIISTVDLVVSTMVNAIECPQVESMLHFEQGQIEVFKLTLDSQSPVIGRSVAAIAQDRNFPSSSLIIGYQSHPQADLVIPSGNTVLEANATVLLATKPGLVQSLVNFLMPSLFSPLEHHHHHH
protein production: failed

MVGIRKRKDFFEDFGSELFDNLEEMIEALLEEMGDSVPFVYGFSIIHRPGEDPELREFGNVPEYPQQEENFFPSETKEPLIDIFENENMVHVLAEFPEIEKEDILLHATGQHLEIKVLGLSEYTEDVDLPVRVDPKSAKASYKNGVLEVTFRRCSEESPVEIEINLEHHHHHH
protein production: not failed
